Test results: the RNAGym collection of RNA variant scans (doi:10.7554/elife.80360)

B1: HDV Ribozyme (parent)
chain: GGCCGGCAUGGUCCCAGCCUCCUCGCUGGCGCCGGCUGGGCAACAUUCCGAGGGGACCGUCCCCUCGGUAAUGGCGAAUGGGACCCA

Variants of: B1
Assay: self-cleavage, relative activity (ratio to wild type); higher = more cleavage; co-transcriptional

Variant	self-cleavage
U9G C84U	0.831
G10C A16U	1.49
U9A C32G	0.0489
G10U C58A	0.873
G10U C58U	0.982
G10C C33A	0.213
U9C C58G	1.14
U9G G53A	1.03
U9G G53U	1.1
U9G A71U	1.13
U9G A71C	0.787
U9G A71G	0.831
U9G G34U	0.237
U9A G11U	0.312
G10C G25A	0.308
G10C U20A	0.0519
G10U G59A	0.636
U9C G10C	0.767
G10U G76U	1.14
G10U A45G	1.07
G10U A45C	0.175
U9G G25U	0.383
U9G G25A	0.0755
U9A U65C	1.07

Variant	self-cleavage
U9G G40C	0.437
U9G G40A	1.29
U9G U60G	0.875
G10C C24A	0.692
G10C C24U	0.646
U9C U23C	1.06
U9G G82A	0.739
U9G C58A	1.42
U9A G74A	0.491
U9G C64U	0.86
U9G C64A	0.831
U9G C41G	0.831
U9A A51C	0.923
U9G G11A	0.346
G10A G38U	0.0923
U9C A43G	0.755
G10A G54A	0.591
G10A G82C	0.231
U9G G81U	0.437
U9A U47A	1.09
U9A U60C	1.02
U9A U60G	0.9
U9C A83C	0.475
G10A C75G	0.086

Variant	self-cleavage
G10C G59U	0.815
G10A U12C	0.188
G10C G68U	0.778
G10C C58U	1.23
U9A C85G	1.13
U9A C85A	0.902
G10C U12C	0.0978
G10A G50A	0.657
G10A G29A	0.0798
G10A G29C	0.0767
G10A G29U	0.0275
U9G C85A	1.02
U9C A70G	1.25
U9A G81A	0.396
U9C U60A	0.862
U9C U60C	1.11
U9G A56G	0.895
U9C C57G	1.17
U9C C41A	1.19
G10C G54A	0.831
U9C C24U	1.05
U9C C24G	0.0536
U9C C24A	0.864
G10A C62G	0.456

Variant	self-cleavage
G10U C57U	0.855
G10C G52A	0.746
G10C G52U	1.03
U9C G35C	0.519
U9C C36A	0.178
U9C C36U	0.682
U9A A70G	0.918
U9C U79C	0.499
U9G C13A	0.831
U9A C66G	1.1
U9C C30U	0.636
G10C C49A	0.443
G10C C49U	0.89
U9G C66A	0.594
U9C G34A	0.208
U9C G34C	0.361
G10U C49G	0.391
G10C C18A	0.0906
G10C C18U	0.396
G10A C13U	0.179
G10U C84G	0.54
U9C G74U	0.467
G10C G29C	0.155
G10C G29U	0.0707

Variant	self-cleavage
G10U G34U	0.323
G10U G34C	0.189
U9G G29U	0
G10A A70G	0.801
G10A A70C	0.48
G10C C30U	0.208
G10A C14A	0.205
G10A C14G	0.166
U9G A87C	0.969
G10C U37A	0.177
G10C U37C	1.05
U9G C75A	0.201
U9G C75G	0.0791
U9A A56G	0.95
U9A A56C	1.16
U9G A43C	0.415
U9G A43G	0.475
G10A C44G	0.415
G10A C44U	0.463
G10C G40U	0.776
U9C C32G	0
U9G G28U	0.151
U9C G38A	0.123
U9C G38U	0.486

Variant	self-cleavage
U9C G39U	0.665
U9A C84U	0.749
U9A G55A	1.09
G10C C13U	0.119
U9G G54C	0.831
U9G G54A	0.95
U9A C86U	1.09
U9A U46G	1.08
U9A U46C	0.831
U9A U12C	0.289
G10C G35U	0.374
G10C C63A	0.88
G10C C63G	0.852
U9G U12C	0.923
U9A U69G	1.06
U9A C36A	0.122
U9A C36U	1.02
U9A C36G	0.369
U9G U20G	0
U9A C13G	0.111
G10A C18G	0.0817
G10A C18A	0.0567
G10A C18U	0.138
U9G G17A	0.225

Variant	self-cleavage
G10A G73U	0.159
U9G C22U	0.44
U9G C22A	0.314
U9G C14A	0.831
G10A U65A	0.831
U9G C44G	0.7
G10A G17A	0.724
G10C G39A	0.259
G10C G39U	0.808
U9C C26U	1.17
G10A C41A	0.604
G10C C14G	0.312
G10U G40C	0.313
G10U G40U	0.842
G10U G53A	0.769
G10U G28C	0.0941
G10U G28U	0.109
G10U G73A	0.235
G10U C19G	0.1
G10C C64A	0.504
G10C C64G	0.997
G10C C64U	0.892
U9C C62A	1.14
U9C C62U	0.869

Variant	self-cleavage
G10U A78U	0.0554
G10U G81C	0.101
U9G G59C	1.06
G10C A70G	0.516
G10U C36A	0.067
G10C G80U	0.219
G10C G80C	0.104
U9C U46C	0.831
U9C G50A	0.877
U9A G25C	0.0615
U9G C62A	1.14
G10C C62A	0.919
G10C C62U	0.989
U9C C61G	0.755
G10C U47G	1.35
G10C U47A	0.853
G10A U79G	0.232
U9A U72A	0.712
U9G U37C	1.37
U9C C14G	0.208
G10C G28C	0.107
G10C G28U	0.148
G10C A83G	0.578
U9C C64G	0.95

Variant	self-cleavage
G10C A51C	0.665
U9A A43C	0.447
G10A U72G	0.378
G10A U72C	0.175
U9G G31U	0.554
U9G G31A	0.675
U9A C22G	0.0519
U9C G29A	0.222
U9C U27G	0.914
U9A U23A	1.12
G10C U65C	0.831
U9A C57G	1.18
G10A G67A	0.66
G10A U20G	0.0791
U9A C18U	0.991
U9A C18A	0.107
U9A C18G	0.369
G10U G11A	0.267
G10U C18A	0.0175
U9G G67C	1.08
U9C U12G	1.07
U9C U12A	0.511
U9C U12C	0.119
U9C A51U	1.06

Variant	self-cleavage
U9C G73C	0.291
U9C G73A	0.675
U9A G52U	0.858
U9A G52C	1.16
G10C G17U	0.494
U9G C36G	0.115
G10A A43G	0.217
G10A A43U	0.355
U9G A16U	1.14
U9C C63A	1.14
G10C C84G	0.578
G10C C84A	0.705
G10A C63U	0.655
G10C C26U	0.997
U9A C75U	0.145
U9A C75A	0.0573
U9A G59U	1.41
G10A A56C	0.78
G10A A56G	0.695
U9G G80C	0.246
U9C U72C	0.485
G10U G74U	0.0594
U9C C33A	0.489
U9C A77G	1.05

Variant	self-cleavage
U9C A71G	0.997
U9G C61A	1.33
U9G G50A	1.18
U9C G67A	1.12
U9A G53C	0.974
U9A C14A	0.65
U9A U27A	0.9
U9A U27C	0.795
U9C G28A	0.101
U9C A87U	1.06
U9G U72C	0.415
U9C G68C	0.89
U9G A70G	0.831
U9G C32G	0.317
G10A G40A	0.905
G10A G40U	0.566
G10A C64A	0.646
G10A C64G	0.749
U9G C30A	0.653
G10U C64A	0.513
G10U C64U	0.748
U9G C21A	0.123
U9G C21U	0.332
U9G C63A	0.935

Variant	self-cleavage
G10C G31C	0.237
G10C G31A	0.393
U9C C75G	0
G10U G68U	0.727
G10U G68A	0.584
G10U G68C	0.564
U9A G34C	0.375
G10A C57U	0.797
G10U C63G	0.798
G10U C63U	0.686
G10U C63A	0.845
U9A G17A	0.906
G10A C85A	1.09
G10A C85U	0.946
G10A C58A	0.816
G10A C58U	0.972
G10U G31A	0.29
G10A A87G	0.857
G10A U47G	0.853
G10U A87C	0.801
U9G A77U	0.604
U9G U65G	0.782
U9G C15G	0.739
U9C G40U	0.449

Variant	self-cleavage
U9G A42G	0.727
G10C G11U	0.185
U9A C26U	1.12
G10C G53C	1.02
U9G C49G	0.886
U9A G82C	0.332
G10A U27A	0.587
G10A U27G	0.98
U9C C66U	0.919
U9C A45C	0.957
U9A C61A	1.16
G10C C57G	0.81
G10C C15U	0.582
G10C C15A	0.237
U9G U47A	1.16
G10U G29C	0.0615
G10U G29A	0.0536
G10A G34C	0.227
G10U C13U	0.122
G10U G54A	0.735
G10C G73U	0.177
G10C G73A	0.396
G10C C75A	0.415
U9A C48G	1.31

Variant	self-cleavage
G10U C30A	0.158
U9G G68C	1.02
U9G G68A	0.831
G10A G52A	0.749
G10U C75G	0.0563
U9A C63A	1.25
U9C C15G	0.104
U9G G52C	0.95
U9G G52A	0.712
G10U C32A	0.1
G10U C32G	0.0554
G10U G80U	0.0944
U9C G31U	0.399
U9C G31A	0.269
G10A U60C	0.787
G10A G39A	0.321
U9C C84G	0.489
U9C C84A	0.65
G10A A71U	0.712
U9A C64A	1.04
G10U A70C	0.678
G10U A70U	0.602
